Data as given in the supplement of paper PMC5998384.

Columns and labels:
[1] = test system: HeLa Kyoto; assay: solubility in G1/S (NP-40 vs SDS abundance) (log2 ratio); higher = more soluble; details: cell cycle stage: G1/S
[2] = test system: HeLa Kyoto; assay: solubility change mitosis vs G1/S (difference of NP-40 vs SDS log2 ratios) (log2 ratio difference); higher = more soluble in mitosis
[3] = test system: HeLa Kyoto; assay: thermal stability score vs G1/S (z-score of summed log2 fold changes over temperatures); higher = more thermally stable than in G1/S
[4] = test system: HeLa Kyoto; assay: melting temperature (median over replicates), in situ; higher = more thermally stable
[5] = cell cycle stage: early G1 (4.5 h after nocodazole release)
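For melting temperature (median over replicates), in situ in this document: HeLa Kyoto cells synchronized by double thymidine or nocodazole block, proteins quantified by TMT10plex mass spectrometry, three independent biological replicates.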
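For solubility change mitosis vs G1/S (difference of NP-40 vs SDS log2 ratios) in this document: synchronized HeLa Kyoto cells (double thymidine block for G1/S, nocodazole release for mitosis), protein amounts in NP-40 versus SDS lysates quantified by mass spectrometry, three biological replicates.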
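For solubility in G1/S (NP-40 vs SDS abundance) in this document: HeLa Kyoto cells arrested at G1/S by double thymidine block, proteins quantified by TMT10plex mass spectrometry in mild NP-40 versus SDS extracts, three biological replicates.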
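For thermal stability score vs G1/S (z-score of summed log2 fold changes over temperatures) in this document: synchronized HeLa Kyoto cells, proteins quantified by TMT10plex mass spectrometry, three biological replicates, mitosis taken 0.5 h after nocodazole release, G1/S directly after double thymidine block.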

| Sequence | solubility in G1/S (log2) [1] | solubility change mitosis (log2) [2] | thermal stability score [3, 5] | thermal stability score ([3]; cell cycle stage: mitosis) | melting temperature ([4]; cell cycle stage: G1/S) | melting temperature ([4]; cell cycle stage: mitosis) |
| --- | --- | --- | --- | --- | --- | --- |
| MSGGGPSGGGPGGSGRARTSSFAEPGGGGGGGGGGPGGSASGPGGTGGGKASVGAMGGGVGASSSGGGPGGSGGGGSGGPGAGTSFPPPGVKLGRDSGKVTTVVATLGQGPERSQEVAYTDIKVIGNGSFGVVYQARLAETRELVAIKKVLQDKRFKNRELQIMRKLDHCNIVRLRYFFYSSGEKKDELYLNLVLEYVPETVYRVARHFTKAKLTIPILYVKVYMYQLFRSLAYIHSQGVCHRDIKPQNLLVDPDTAVLKLCDFGSAKQLVRGEPNVSYICSRYYRAPELIFGATDYTSSIDVWSAGCVLAELLLGQPIFPGDSGVDQLVEIIKVLGTPTREQIREMNPNYTEFKFPQIKAHPWTKVFKSRTPPEAIALCSSLLEYTPSSRLSPLEACAHSFFDELRCLGTQLPNNRPLPPLFNFSAGELSIQPSLNAILIPPHLRSPAGTTTLTPSSQALTETPTSSDWQSTDATPTLTNSS [GSK3A] | 0.181 | -0.0272 | -1 | -0.972 | 52.3 °C | 52.7 °C |
| MSGLRVYSTSVTGSREIKSQQSEVTRILDGKRIQYQLVDISQDNALRDEMRALAGNPKATPPQIVNGDQYCGDYELFVEAVEQNTLQEFLKLA [SH3BGRL3] | -0.259 | -0.132 | -2.26 | -3.11 | 54.2 °C | 52.6 °C |
| MSGLVLGQRDEPAGHRLSQEEILGSTRLVSQGLEALRSEHQAVLQSLSQTIECLQQGGHEEGLVHEKARQLRRSMENIELGLSEAQVMLALASHLSTVESEKQKLRAQVRRLCQENQWLRDELAGTQQRLQRSEQAVAQLEEEKKHLEFLGQLRQYDEDGHTSEEKEGDATKDSLDDLFPNEEEEDPSNGLSRGQGATAAQQGGYEIPARLRTLHNLVIQYAAQGRYEVAVPLCKQALEDLERTSGRGHPDVATMLNILALVYRDQNKYKEAAHLLNDALSIRESTLGPDHPAVAATLNNLAVLYGKRGKYKEAEPLCQRALEIREKVLGTNHPDVAKQLNNLALLCQNQGKYEAVERYYQRALAIYEGQLGPDNPNVARTKNNLASCYLKQGKYAEAETLYKEILTRAHVQEFGSVDDDHKPIWMHAEEREEMSKSRHHEGGTPYAEYGGWYKACKVSSPTVNTTLRNLGALYRRQGKLEAAETLEECALRSRRQGTDPISQTKVAELLGESDGRRTSQEGPGDSVKFEGGEDASVAVEWSGDGSGTLQRSGSLGKIRDVLRRSSELLVRKLQGTEPRPSSSNMKRAASLNYLNQPSAAPLQVSRGLSASTMDLSSSS [KLC4] | 0.299 | -0.12 | 0.719 | 1.19 | 49.8 °C | 51.3 °C |
| MSGPVPSRARVYTDVNTHRPREYWDYESHVVEWGNQDDYQLVRKLGRGKYSEVFEAINITNNEKVVVKILKPVKKKKIKREIKILENLRGGPNIITLADIVKDPVSRTPALVFEHVNNTDFKQLYQTLTDYDIRFYMYEILKALDYCHSMGIMHRDVKPHNVMIDHEHRKLRLIDWGLAEFYHPGQEYNVRVASRYFKGPELLVDYQMYDYSLDMWSLGCMLASMIFRKEPFFHGHDNYDQLVRIAKVLGTEDLYDYIDKYNIELDPRFNDILGRHSRKRWERFVHSENQHLVSPEALDFLDKLLRYDHQSRLTAREAMEHPYFYTVVKDQARMGSSSMPGGSTPVSSANMMSGISSVPTPSPLGPLAGSPVIAAANPLGMPVPAAAGAQQ [CSNK2A1] | -0.00675 | 0.0535 | 1.11 | 1.31 | 51.5 °C | 50.7 °C |
| MSGRGAGGFPLPPLSPGGGAVAAALGAPPPPAGPGMLPGPALRGPGPAGGVGGPGAAAFRPMGPAGPAAQYQRPGMSPGNRMPMAGLQVGPPAGSPFGAAAPLRPGMPPTMMDPFRKRLLVPQAQPPMPAQRRGLKRRKMADKVLPQRIRELVPESQAYMDLLAFERKLDQTIARKRMEIQEAIKKPLTQKRKLRIYISNTFSPSKAEGDSAGTAGTPGGTPAGDKVASWELRVEGKLLDDPSKQKRKFSSFFKSLVIELDKELYGPDNHLVEWHRMPTTQETDGFQVKRPGDLNVKCTLLLMLDHQPPQYKLDPRLARLLGVHTQTRAAIMQALWLYIKHNQLQDGHEREYINCNRYFRQIFSCGRLRFSEIPMKLAGLLQHPDPIVINHVISVDPNDQKKTACYDIDVEVDDPLKAQMSNFLASTTNQQEIASLDVKIHETIESINQLKTQRDFMLSFSTDPQDFIQEWLRSQRRDLKIITDVIGNPEEERRAAFYHQPWAQEAVGRHIFAKVQQRRQELEQVLGIRLT [SMARCD2] | 0.445 | 0.00253 | 0.352 | 1.15 | 48 °C | 49.2 °C |
| MSGTKPDILWAPHHVDRFVVCDSELSLYHVESTVNSELKAGSLRLSEDSAATLLSINSDTPYMKCVAWYLNYDPECLLAVGQANGRVVLTSLGQDHNSKFKDLIGKEFVPKHARQCNTLAWNPLDSNWLAAGLDKHRADFSVLIWDICSKYTPDIVPMEKVKLSAGETETTLLVTKPLYELGQNDACLSLCWLPRDQKLLLAGMHRNLAIFDLRNTSQKMFVNTKAVQGVTVDPYFHDRVASFYEGQVAIWDLRKFEKPVLTLTEQPKPLTKVAWCPTRTGLLATLTRDSNIIRLYDMQHTPTPIGDETEPTIIERSVQPCDNYIASFAWHPTSQNRMIVVTPNRTMSDFTVFERISLAWSPITSLMWACGRHLYECTEEENDNSLEKDIATKMRLRALSRYGLDTEQVWRNHILAGNEDPQLKSLWYTLHFMKQYTEDMDQKSPGNKGSLVYAGIKSIVKSSLGMVESSRHNWSGLDKQSDIQNLNEERILALQLCGWIKKGTDVDVGPFLNSLVQEGEWERAAAVALFNLDIRRAIQILNEGASSEKGDLNLNVVAMALSGYTDEKNSLWREMCSTLRLQLNNPYLCVMFAFLTSETGSYDGVLYENKVAVRDRVAFACKFLSDTQLNRYIEKLTNEMKEAGNLEGILLTGLTKDGVDLMESYVDRTGDVQTASYCMLQGSPLDVLKDERVQYWIENYRNLLDAWRFWHKRAEFDIHRSKLDPSSKPLAQVFVSCNFCGKSISYSCSAVPHQGRGFSQYGVSGSPTKSKVTSCPGCRKPLPRCALCLINMGTPVSSCPGGTKSDEKVDLSKDKKLAQFNNWFTWCHNCRHGGHAGHMLSWFRDHAECPVSACTCKCMQLDTTGNLVPAETVQP [MIOS] | -0.271 | 0.0327 | -0.829 | -1.48 | 53.9 °C | 53 °C |
| MSGWADERGGEGDGRIYVGNLPTDVREKDLEDLFYKYGRIREIELKNRHGLVPFAFVRFEDPRDAEDAIYGRNGYDYGQCRLRVEFPRTYGGRGGWPRGGRNGPPTRRSDFRVLVSGLPPSGSWQDLKDHMREAGDVCYADVQKDGVGMVEYLRKEDMEYALRKLDDTKFRSHEGETSYIRVYPERSTSYGYSRSRSGSRGRDSPYQSRGSPHYFSPFRPY [SRSF9] | -0.159 | 0.706 | -3.88 | -3.72 | 50 °C | 50.6 °C |
| MSGYSSDRDRGRDRGFGAPRFGGSRAGPLSGKKFGNPGEKLVKKKWNLDELPKFEKNFYQEHPDLARRTAQEVETYRRSKEITVRGHNCPKPVLNFYEANFPANVMDVIARQNFTEPTAIQAQGWPVALSGLDMVGVAQTGSGKTLSYLLPAIVHINHQPFLERGDGPICLVLAPTRELAQQVQQVAAEYCRACRLKSTCIYGGAPKGPQIRDLERGVEICIATPGRLIDFLECGKTNLRRTTYLVLDEADRMLDMGFEPQIRKIVDQIRPDRQTLMWSATWPKEVRQLAEDFLKDYIHINIGALELSANHNILQIVDVCHDVEKDEKLIRLMEEIMSEKENKTIVFVETKRRCDELTRKMRRDGWPAMGIHGDKSQQERDWVLNEFKHGKAPILIATDVASRGLDVEDVKFVINYDYPNSSEDYIHRIGRTARSTKTGTAYTFFTPNNIKQVSDLISVLREANQAINPKLLQLVEDRGSGRSRGRGGMKDDRRDRYSAGKRGGFNTFRDRENYDRGYSSLLKRDFGAKTQNGVYSAANYTNGSFGSNFVSAGIQTSFRTGNPTGTYQNGYDSTQQYGSNVPNMHNGMNQQAYAYPATAAAPMIGYPMPTGYSQ [DDX5] | -0.551 | 0.397 | 3.64 | 11.3 | 47.2 °C | 48.4 °C |
